Test system: K4 kissing-loop RNA reporter
Experiment: apparent KD of K4 kissing-loop reporter; higher = weaker reporter binding
Conditions: Eterna round: R107
Experimental: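 RNA-MaP round R107: designed RNA switches with theophylline, tryptophan, arginine or FMN aptamers are transcribed on-chip within common flanks. They are titrated with a labelled K4 kissing-loop RNA reporter in RNA-MaP buffer (100 mM Tris pH 7.5, 80 mM KCl, 4 mM MgCl2), without ligand or with the indicated ligand. Median apparent KD per design.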

[1] = input ligand: theophylline 20 uM
[2] = input ligand: tryptophan 2.4 mM
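Also: bound reporter read as fluorescence of individual clusters on recovered sequencing chips by microscopy, with normalized cluster intensities fitted with a binding model.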

| Sequence | apparent KD of K4 kissing-loop reporter (input ligand: FMN 200 uM) | apparent KD of K4 kissing-loop reporter (input ligand: arginine 13.2 mM) | apparent KD of K4 kissing-loop reporter (input ligand: none) | apparent KD of K4 kissing-loop reporter [1] | apparent KD of K4 kissing-loop reporter [2] |
| --- | --- | --- | --- | --- | --- |
| UUCUAGCCGAAAGGCUAGUCGGCUUCAGAUACCAGUCGCGAAAGCGACCCUUGGCAGCUGUGUAGUGAUGUUGCAAAGAAAGCCG | 0.556 µM | 0.435 µM | 0.618 µM | 0.262 µM | 0.524 µM |
| UUGAGCCGGACCCAAGUCCGGCUCUGCGAGCGAGGACCGGUACGGCCGCCACUCGGUGCAGUGAUGUUGCAUGGCCGCAAGGCCG [#2 Exclusion - Tryptophan A Attempt #7 (HarryS)] | 0.439 µM | 0.294 µM | 0.377 µM | 0.372 µM | 0.46 µM |
| UUGCAAAAGUCGGCCGCCACUCCGGGCCCUAUAAAUGGGCGCAGUGAUGUUGCGGCUAGGCCUCUGAGGACCGGGACUUUGUAGC [Aenonlebe] | 0.079 µM | 0.103 µM | 0.142 µM | 0.111 µM | 0.199 µM |
| UUGCAUGCUAGGGAAACCUAGCAUGCAUGCCGAGGACCGGUACGGCCGCCACUCGAACGAGUGAUGUUCGUUGACCAAAAUAAAA | 0.227 µM | 0.468 µM | 0.337 µM | 0.635 µM | 0.282 µM |
| UUGGAUUGAUGAGAGUUGAUUUGGUAGGAAGGAGCGGCCGAAAGGCCAGGUAGGUCGCCUAUUGACAGUGAUGUUGUUAUAUGGU [#16] | 0.215 µM | 0.228 µM | 0.237 µM | 0.489 µM | 0.226 µM |
| UUGGGCAACCGAGAUACCAGUCAAAUCGCUCUGGAGUGAUGUUCCGGAACAUGCGGAGAAGACCCUUGGCAGCUCAAGACGGACA [Exclusion Theophylline B GF 1] | 0.111 µM | 0.107 µM | 0.107 µM | 0.113 µM | 0.0912 µM |
| UUGGGCAGUGAUGUUGGCUAGGCCACAGAUACCAGACGCAUGCACGUCCCUUGGCAGCUGCGAAAGUUAGACUUGUAAUGAUAGU [theeternabot_sameState_KL_Theo_A_45] | 0.418 µM | 0.181 µM | 0.321 µM | 0.338 µM | 0.217 µM |
| UUGUUUCCGACGGCCGCCACUGGUUUCUUUGUUGUAGUGAUGUUGCGGUGGAAUGAUAGCGUUAACAGGACCGGGUCGGUGAGAC [theeternabot_sameState_KL_Trp_B_42] | 1.28 µM | 0.547 µM | 0.774 µM | 0.58 µM | 0.451 µM |
| UUUAAAUAUAGUGAUGUUAUAUAACAAUGACGAGGACCGGUACGGCCGCCACUCGAGAGAGAUAAUGGUCUAUAGAAUCUAUAGC [AstrosSSTryA#4] | 0.726 µM | 0.622 µM | 0.803 µM | 0.87 µM | 0.508 µM |
| UUUACCAGUGAUGUUGGCCUAGUAUUUACACGAGGACCGGUACGGCCGCCACUCGCAUUAUCGGACUUUGAUAAGCAUAUUAUAU [theeternabot_sameState_KL_Trp_A_28] | 0.317 µM | 0.283 µM | 0.318 µM | 0.384 µM | 0.199 µM |
| UUUAGAUGAAGUGAUACCAGACUUGAAAGUGAUGUUUUCCAAUAAUUUAAAUUAUUAGCUGUCCCUUGGCAGCACAGUUUAUUUA [JR_ExcTheophyB_Sub008] | 0.229 µM | 0.326 µM | 0.282 µM | 0.346 µM | 0.193 µM |
| UUUCGGUUCUGAGGAUAUUCGGACAAAUAUAGUGAUGUUGUAUAAGGAGGAGGGUGUUGGCAGUGAGGAGAAGGCAGAAGAGGAU [ExFMNB.T] | 1 µM | 0.677 µM | 0.946 µM | 0.524 µM | 0.622 µM |
| UUUCGUCUCUGAGGAUAUCAGAGGAGAGUGAUGUUCUCCCAUAGCCCAGUGAUGUUGGAUGCUAUCUGAGAAGGCAGUGGGCGAA [Same State FMN B GF 13] | 0.143 µM | 0.141 µM | 0.164 µM | 0.144 µM | 0.155 µM |
| UUUCUACCGGGAAGGAGCGUGAAUGAUAAUGGAUAUAGUGAUGUUAUAUAUAAGAACGAAUCGCAGGUAGGUCGCCCGGAUGACU [SSArgB.S] | 0.311 µM | 0.333 µM | 0.352 µM | 0.397 µM | 0.31 µM |
| UUUGUAUCGGGAAGGAGCGUGAAUGAUAAUGAAUAUAGUGAUGUUAUAUAUAAGAACGAAUCACAGGUAGGUCGCCCGGAUGAGU [SSArgB.N] | 0.548 µM | 0.387 µM | 0.486 µM | 0.548 µM | 0.46 µM |
| UUUUUAAUCGCAGAUACCAGUCCAGAAUGAAUACUAUAGUGAUGUUAUAAUAAAGGGAAGGACCCUUGGCAGCUGUAAUAUAUUU [AstrosSsTheB#5] | 0.386 µM | 0.315 µM | 0.416 µM | 0.318 µM | 0.298 µM |
| UUUUUAUAAGAGGAUACCAGUACAAAUAAAGUACAUUAAUAGUAGAGUGAUGUUCUAAAGUACCCUUGGCAGCUUAGAUUAAGUU [ExTheophylB.D] | 0.158 µM | 0.268 µM | 0.172 µM | 0.255 µM | 0.117 µM |
| UUUUUCGCGUUUGAUACCAGCAGAGUUGUUCGUGUCUGGAACAUGAGUGAUGUUCAUGUCUGCCCUUGGCAGCAAACGGGAGAAG [KL-XTheo-B13] | 0.127 µM | 0.112 µM | 0.103 µM | 0.0878 µM | 0.124 µM |

— the supplement of paper PMC9170038
